Changes are numbered by the printed parent chain. In names and notes the source's numbering stands.
B1: variant CD80 IgV-Fc E35D/D46E/M47L/V68M/A71G/Y87C/K93R (Fc fusion, not shown: small tags and cut ends; a dimerising Fc or GST)
chain: VIHVTKEVKEVATLSCGHNVSVEELAQTRIYWQKDKKMVLTMMSGELNIWPEYKNRTIFDITNNLSIMILGLRPSDEGTYECVVLKCEKDAFRREHLAEVTLSVKAD
B2: variant CD80 IgV-Fc Q33L/E35D/M47V/L85Q (Fc fusion, not shown: a dimerising Fc or GST)
chain: B1 chain with Q33L, E46D, L47V, M68V, G71A, L85Q, C87Y, R93K
B3: variant CD80 IgV-Fc H18L/V22A/E35D/M47L/N48T/L85Q (Fc fusion, not shown: a dimerising Fc or GST)
chain: B1 chain with H18L, V22A, E46D, N48T, M68V, G71A, L85Q, C87Y, R93K
B4: variant CD80 IgV-Fc Q33L/E35D/M47I/T62N/L85Q (Fc fusion, not shown: a dimerising Fc or GST)
chain: B1 chain with Q33L, E46D, L47I, T62N, M68V, G71A, L85Q, C87Y, R93K
B5: variant CD80 IgV-Fc V22A/E23D/Q33L/E35D/M47V (Fc fusion, not shown: a dimerising Fc or GST)
chain: B1 chain with V22A, E23D, Q33L, E46D, L47V, M68V, G71A, C87Y, R93K
B6: variant CD80 IgV-Fc H18Y/V20A/Q33L/E35D/M47V/Y53F (Fc fusion, not shown: a dimerising Fc or GST)
chain: B1 chain with H18Y, V20A, Q33L, E46D, L47V, Y53F, M68V, G71A, C87Y, R93K
B7: variant CD80 IgV-Fc H18Y/Q33L/E35D/M47I (Fc fusion, not shown: a dimerising Fc or GST)
chain: B1 chain with H18Y, Q33L, E46D, L47I, M68V, G71A, C87Y, R93K
B8: variant CD80 IgV-Fc A26E/E35D/M43T/M47L/L85Q/R94Q (Fc fusion, not shown: a dimerising Fc or GST)
chain: B1 chain with A26E, M43T, E46D, M68V, G71A, L85Q, C87Y, R93K, R94Q
B9: variant CD80 IgV-Fc A26E/Q33R/E35D/M47L/L85Q (Fc fusion, not shown: a dimerising Fc or GST)
chain: B1 chain with A26E, Q33R, E46D, M68V, G71A, L85Q, C87Y, R93K
B10: variant CD80 IgV-Fc H18Y/E35D/M47L (Fc fusion, not shown: a dimerising Fc or GST)
chain: B1 chain with H18Y, E46D, M68V, G71A, C87Y, R93K
B11: variant CD80 IgV-Fc A26E/Q33L/E35D/M47L/L85Q (Fc fusion, not shown: a dimerising Fc or GST)
chain: B1 chain with A26E, Q33L, E46D, M68V, G71A, L85Q, C87Y, R93K
B12: variant CD80 IgV-Fc Q33L/E35D/M47I/L85Q (Fc fusion, not shown: a dimerising Fc or GST)
chain: B1 chain with Q33L, E46D, L47I, M68V, G71A, L85Q, C87Y, R93K
B13: variant CD80 IgV-Fc A26E/Q33L/E35D/M47L (Fc fusion, not shown: a dimerising Fc or GST)
chain: B1 chain with A26E, Q33L, E46D, M68V, G71A, C87Y, R93K
B14: variant CD80 IgV-Fc E35D/M47I/E77A/L85Q/R94W (Fc fusion, not shown: a dimerising Fc or GST)
chain: B1 chain with E46D, L47I, M68V, G71A, E77A, L85Q, C87Y, R93K, R94W
B15: variant CD80 IgV-Fc E35D/M47L/L85Q (Fc fusion, not shown: a dimerising Fc or GST)
chain: B1 chain with E46D, M68V, G71A, L85Q, C87Y, R93K
B16: variant CD80 IgV-Fc E7D/E35D/M47I/L97Q (Fc fusion, not shown: a dimerising Fc or GST)
chain: B1 chain with E7D, E46D, L47I, M68V, G71A, C87Y, R93K, L97Q
B17: variant CD80 IgV-Fc Y31S/E35D/M47L/T79L/E88G (Fc fusion, not shown: a dimerising Fc or GST)
chain: B1 chain with Y31S, E46D, M68V, G71A, T79L, C87Y, E88G, R93K
B18: variant CD80 IgV-Fc H18Y/A26E/Q33L/E35D/M47L/L85Q (Fc fusion, not shown: a dimerising Fc or GST)
chain: B1 chain with H18Y, A26E, Q33L, E46D, M68V, G71A, L85Q, C87Y, R93K
B19: variant CD80 IgV-Fc Q33L/E35D/T41S/M43I (Fc fusion, not shown: a dimerising Fc or GST)
chain: B1 chain with Q33L, T41S, M43I, E46D, L47M, M68V, G71A, C87Y, R93K
B20: variant CD80 IgV-Fc Q27H/Q33L/E35D/M47V/N55D/L85Q/K89N (Fc fusion, not shown: a dimerising Fc or GST)
chain: VIHVTKEVKEVATLSCGHNVSVEELAHTRIYWLKDKKMVLTMMSGDVNIWPEYKDRTIFDITNNLSIVILALRPSDEGTYECVVQKYENDAFKREHLAEVTLSVKAD
B21: variant CD80 IgV-Fc A26E/Q33R/E35D/M47L/L85Q/K86E (Fc fusion, not shown: a dimerising Fc or GST)
chain: B20 chain with A26E, H27Q, L33R, V47L, D55N, K86E, N89K
notes: Fc fusions are described in general as dimers

molecular target: T1, human PD-L1 (huPD-L1), full-length, stably expressed on CHO cells (human, UniProt Q9NZQ7 19-290); assay: flow cytometry, CHO cells expressing huPD-L1
T1 construct: whole, on cells
T1 sequence (Q9NZQ7 19-290): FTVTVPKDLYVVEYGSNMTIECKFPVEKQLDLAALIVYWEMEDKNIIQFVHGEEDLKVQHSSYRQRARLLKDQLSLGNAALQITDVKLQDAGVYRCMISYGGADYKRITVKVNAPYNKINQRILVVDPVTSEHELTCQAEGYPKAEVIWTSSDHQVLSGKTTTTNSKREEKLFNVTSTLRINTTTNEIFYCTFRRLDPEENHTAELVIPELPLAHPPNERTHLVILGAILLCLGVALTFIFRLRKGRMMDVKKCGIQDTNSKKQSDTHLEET

Binder	MFI at 33.3 nM [MFI]
B1	24300

molecular target: T2, human CTLA4 (full-length, expressed on CHO cells) (human, UniProt P16410 36-223); assay: flow cytometry, CHO cells expressing huCTLA4, PE anti-human Fc
T2 construct: also called huCTLA4
T2 sequence (P16410 36-223): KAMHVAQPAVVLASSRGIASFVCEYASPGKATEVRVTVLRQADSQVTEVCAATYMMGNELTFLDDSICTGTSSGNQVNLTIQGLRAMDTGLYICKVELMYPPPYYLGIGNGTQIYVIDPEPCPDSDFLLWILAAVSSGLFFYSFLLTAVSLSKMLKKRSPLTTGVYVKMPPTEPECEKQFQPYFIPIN

Binder	MFI at 33.3 nM [MFI]
B2	75400
B3	374000
B4	1660
B5	3640
B6	2880
B7	5540
B8	278000
B9	1280
B10	284000
B11	1170
B12	20500
B13	1320
B14	247000
B15	336000
B16	271000
B17	1100
B18	2090
B19	6390
B20	56100
B21	1280

molecular target: T3, human PD-L1 (full-length, expressed on CHO cells) (human, UniProt Q9NZQ7 19-290); assay: flow cytometry, CHO cells expressing huPD-L1, PE anti-human Fc
T3 construct: also called huPD-L1; CD274
T3 sequence (Q9NZQ7 19-290): as the sequence (Q9NZQ7 19-290) above

Binder	MFI at 33.3 nM [MFI]
B2	47400
B3	98100
B4	72600
B5	75500
B6	121000
B7	47800
B8	68100
B9	81500
B10	44200
B11	62700
B12	63900
B13	60900
B14	64500
B15	33200
B16	14600
B17	38900
B18	76600
B19	44900
B20	14800
B21	76000

molecular target: T4, CD28 (endogenously expressed on Jurkat/IL2 reporter cells) (human, UniProt P10747 19-220); assay: flow cytometry MFI at 33.3 nM relative to WT CD80 ECD-Fc (R&D), Jurkat cells
T4 construct: Endogenous CD28 of Jurkat cells; also called human CD28

Binder	Fold change to WT [fold]
B2	0.04
B4	0.04
B5	0.04
B6	0.03
B7	0.04
B8	0.03
B9	0.03
B10	0.66
B11	0.04
B12	0.04
B13	0.04
B14	0.04
B15	0.08
B16	0.04
B17	0.04
B18	0.04
B20	0.04
B21	0.04

molecular target: T4, CD28 (endogenously expressed on …); assay: flow cytometry, Jurkat/IL2 reporter cells (endogenous CD28), PE anti-human Fc

Binder	MFI at 33.3 nM [MFI]
B2	268
B4	284
B5	274
B6	260
B7	295
B8	260
B9	264
B10	5070
B11	274
B12	287
B13	271
B14	272
B15	646
B16	273
B17	278
B18	272
B20	269
B21	275

molecular target: T2, human CTLA4 (full-length, expressed on …); assay: flow cytometry MFI at 33.3 nM relative to WT CD80 ECD-Fc (R&D), CHO/huCTLA4 cells

Binder	Fold change to WT CD80 [fold]
B2	0.42
B3	2.09
B4	0.01
B5	0.02
B6	0.02
B7	0.03
B8	1.56
B9	0.01
B10	1.59
B11	0.01
B12	0.11
B13	0.01
B14	1.38
B15	1.88
B16	1.52
B17	0.01
B18	0.01
B19	0.04
B20	0.31
B21	0.01

molecular target: T3, human PD-L1 (full-length, expressed on …); assay: flow cytometry MFI at 33.3 nM relative to WT CD80 ECD-Fc (R&D), CHO/huPD-L1 cells

Binder	Fold change to WT [fold]
B2	5.97
B3	12.3
B4	9.14
B5	9.51
B6	15.2
B7	6.02
B8	8.57
B9	10.3
B10	5.56
B11	7.89
B12	8.05
B13	7.67
B14	8.12
B15	4.18
B16	1.84
B17	4.9
B18	9.64
B19	5.66
B20	1.86
B21	9.56

molecular target: T3, human PD-L1 (full-length, expressed on …); assay: flow cytometry, MFI on CHO/huPD-L1 cells over MFI on Jurkat (CD28) cells, 33.3 nM

Binder	Ratio of PDL1:CD28 [ratio]
B2	177
B3	226
B4	256
B5	275
B6	463
B7	162
B8	262
B9	309
B10	9
B11	229
B12	222
B13	225
B14	238
B15	51
B16	54
B17	140
B18	282
B19	104
B20	55
B21	276

Source: patent publication US20210130436A1 (published 2021)
